Measured values published in publication PMC9482650, “Quantitative fragmentomics allow affinity mapping of interactomes” (Nature Communications, 2022).

T1: APBA2_1, Q99767
T1 sequence (Q99767 563-664, limits assumed, looked up): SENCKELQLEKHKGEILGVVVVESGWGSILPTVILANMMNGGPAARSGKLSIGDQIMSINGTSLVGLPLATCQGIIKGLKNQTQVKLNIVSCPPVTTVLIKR

T2: APBA3_1, O96018
T2 sequence (O96018 389-490, limits assumed, looked up): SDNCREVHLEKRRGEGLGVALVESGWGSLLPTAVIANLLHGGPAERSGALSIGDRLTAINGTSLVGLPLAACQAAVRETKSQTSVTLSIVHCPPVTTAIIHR

T3: NHERF3_4, Q5T2W1
T3 sequence (Q5T2W1 373-468, limits assumed, looked up): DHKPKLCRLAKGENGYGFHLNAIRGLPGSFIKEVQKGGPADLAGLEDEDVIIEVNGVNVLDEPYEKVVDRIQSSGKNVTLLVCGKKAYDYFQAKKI

T4: DFNB31_3, Q9P202
T4 sequence (Q9P202 811-907, limits assumed, looked up): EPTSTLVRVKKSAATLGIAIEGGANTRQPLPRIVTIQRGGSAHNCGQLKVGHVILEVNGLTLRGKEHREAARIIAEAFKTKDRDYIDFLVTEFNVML

T5: LIN7B, Q9HAP6
T5 sequence (Q9HAP6 88-185, limits assumed, looked up): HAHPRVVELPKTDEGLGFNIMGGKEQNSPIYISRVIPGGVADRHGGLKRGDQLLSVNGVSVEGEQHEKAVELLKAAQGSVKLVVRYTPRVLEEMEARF

T6: SYNJ2BP, P57105
T6 sequence (P57105 8-110, limits assumed, looked up): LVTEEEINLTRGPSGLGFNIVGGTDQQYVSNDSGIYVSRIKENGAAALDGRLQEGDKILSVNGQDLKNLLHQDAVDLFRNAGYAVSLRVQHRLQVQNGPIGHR

T7: APBA2_2, Q99767
T7 sequence (Q99767 654-744, limits assumed, looked up): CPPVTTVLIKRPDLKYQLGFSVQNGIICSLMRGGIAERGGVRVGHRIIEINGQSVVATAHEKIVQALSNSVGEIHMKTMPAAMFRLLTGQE

T8: SIPA1L2, Q9P2F8
T8 sequence (Q9P2F8 945-1036, limits assumed, looked up): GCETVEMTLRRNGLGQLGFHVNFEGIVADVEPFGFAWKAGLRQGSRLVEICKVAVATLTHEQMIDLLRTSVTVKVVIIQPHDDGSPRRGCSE

T9: DVL3, Q92997
T9 sequence (Q92997 244-331, limits assumed, looked up): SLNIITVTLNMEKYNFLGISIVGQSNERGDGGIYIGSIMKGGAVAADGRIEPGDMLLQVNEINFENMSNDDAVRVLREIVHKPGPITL

T10: PDZD7_3, Q9H5P4
T10 sequence (Q9H5P4 857-944, limits assumed, looked up): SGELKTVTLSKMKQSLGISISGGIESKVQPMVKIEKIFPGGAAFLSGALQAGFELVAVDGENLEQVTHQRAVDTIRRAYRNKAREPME

T11: APBA1_1, Q02410
T11 sequence (Q02410 651-752, limits assumed, looked up): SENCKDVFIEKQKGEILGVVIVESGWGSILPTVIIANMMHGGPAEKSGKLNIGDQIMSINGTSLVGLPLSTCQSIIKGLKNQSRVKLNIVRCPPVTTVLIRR

T12: MPDZ_10, O75970
T12 sequence (O75970 1624-1722, limits assumed, looked up): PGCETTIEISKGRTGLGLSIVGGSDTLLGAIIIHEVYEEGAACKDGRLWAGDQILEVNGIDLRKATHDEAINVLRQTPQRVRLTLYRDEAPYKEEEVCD

T13: HTRA4, P83105
T13 sequence (P83105 378-476, limits assumed, looked up): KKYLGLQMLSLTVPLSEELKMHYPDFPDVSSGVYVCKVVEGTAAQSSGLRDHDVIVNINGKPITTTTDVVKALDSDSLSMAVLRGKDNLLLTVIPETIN


Experiments:
Assay in all cases: holdup assay
Set-up in all cases: key: below the threshold = too weak to quantify, mostly under pKd 3.1 to 4
Details in all cases: plain residues with an end cap or a label only (N-terminal biotin on a linker: ado-ado)
[1] = molecular target: SNX27, Q96L92
[2] = molecular target: T1, APBA2_1, Q99767
[3] = molecular target: MAGI2_4, Q86UL8
MAGI2_4, Q86UL8, sequence (Q86UL8 772-865): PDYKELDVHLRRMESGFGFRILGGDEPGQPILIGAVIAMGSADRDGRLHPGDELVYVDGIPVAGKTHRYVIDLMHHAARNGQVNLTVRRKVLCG

[4] = molecular target: MAST2, Q6P0Q8
MAST2, Q6P0Q8, sequence (Q6P0Q8 1099-1202): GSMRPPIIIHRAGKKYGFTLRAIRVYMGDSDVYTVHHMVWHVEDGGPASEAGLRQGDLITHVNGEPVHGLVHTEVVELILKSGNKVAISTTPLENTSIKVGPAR

[5] = molecular target: GRIP2_3, Q9C0E4
GRIP2_3, Q9C0E4, sequence (Q9C0E4 238-339): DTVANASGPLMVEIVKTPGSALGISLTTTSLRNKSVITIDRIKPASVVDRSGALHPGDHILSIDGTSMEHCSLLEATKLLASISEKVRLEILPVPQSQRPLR

[6] = molecular target: GRIP2_7, Q9C0E4
GRIP2_7, Q9C0E4, sequence (Q9C0E4 934-1023): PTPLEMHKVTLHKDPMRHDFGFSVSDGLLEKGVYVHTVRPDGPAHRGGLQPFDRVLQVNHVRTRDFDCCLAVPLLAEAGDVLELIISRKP

[7] = molecular target: T2, APBA3_1, O96018
[8] = molecular target: T3, NHERF3_4, Q5T2W1
[9] = molecular target: TJP2_1, Q9UDY2
TJP2_1, Q9UDY2, sequence (Q9UDY2 24-128): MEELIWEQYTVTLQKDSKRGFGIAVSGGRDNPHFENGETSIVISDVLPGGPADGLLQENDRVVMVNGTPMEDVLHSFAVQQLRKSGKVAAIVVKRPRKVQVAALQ

[10] = molecular target: Inadl_2, Q8NI35
Inadl_2, Q8NI35, sequence (Q8NI35 238-335): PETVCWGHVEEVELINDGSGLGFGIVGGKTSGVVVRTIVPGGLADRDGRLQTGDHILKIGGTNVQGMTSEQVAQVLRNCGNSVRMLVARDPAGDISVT

[11] = molecular target: T4, DFNB31_3, Q9P202
[12] = molecular target: T5, LIN7B, Q9HAP6
[13] = molecular target: T6, SYNJ2BP, P57105
[14] = molecular target: FRMPD4, Q14CM0
FRMPD4, Q14CM0, sequence (Q14CM0 67-160): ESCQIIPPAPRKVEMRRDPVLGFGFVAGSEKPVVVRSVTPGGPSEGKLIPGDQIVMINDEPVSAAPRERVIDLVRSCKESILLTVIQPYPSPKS

[15] = molecular target: T7, APBA2_2, Q99767
[16] = molecular target: T8, SIPA1L2, Q9P2F8
[17] = molecular target: T9, DVL3, Q92997
[18] = molecular target: PDLIM1, O00151
PDLIM1, O00151, sequence (O00151 1-87): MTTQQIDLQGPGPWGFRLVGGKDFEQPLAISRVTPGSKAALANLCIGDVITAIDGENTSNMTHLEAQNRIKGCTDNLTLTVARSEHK

[19] = molecular target: T10, PDZD7_3, Q9H5P4
[20] = molecular target: T11, APBA1_1, Q02410
[21] = molecular target: MAGI3_2, Q5TCQ9
MAGI3_2, Q5TCQ9, sequence (Q5TCQ9 398-503): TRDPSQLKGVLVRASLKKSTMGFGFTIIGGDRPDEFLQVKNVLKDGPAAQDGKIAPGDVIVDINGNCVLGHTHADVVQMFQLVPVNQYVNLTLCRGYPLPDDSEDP

[22] = molecular target: GRASP, Q7Z6J2
GRASP, Q7Z6J2, sequence (Q7Z6J2 96-193): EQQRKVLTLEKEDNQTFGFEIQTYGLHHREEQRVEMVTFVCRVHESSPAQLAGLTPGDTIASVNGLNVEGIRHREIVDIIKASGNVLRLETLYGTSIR

[23] = molecular target: T12, MPDZ_10, O75970
[24] = molecular target: T13, HTRA4, P83105

pKd [1] | pKd [2] | pKd [3] | pKd [4] | pKd [5] | pKd [6] | pKd [7] | pKd [8] | pKd [9] | pKd [10] | pKd [11] | pKd [12] | pKd [13] | pKd [14] | pKd [15] | pKd [16] | pKd [17] | pKd [18] | pKd [19] | pKd [20] | Binder | also measured
5.18 | below the threshold | 3.91 | 5.12 | below the threshold | below the threshold | below the threshold | 3.85 | 4.04 | below the threshold | 3.96 | 3.66 | 3.9 | below the threshold | below the threshold | below the threshold | below the threshold | below the threshold | 4.28 | below the threshold | LPHGHSTTRV [NLGN4X, Q8N0W4] | pKd [21]: 5.19; pKd [22]: 4.29; pKd [23]: 3.83; pKd [24]: 4.04
4.95 | below the threshold | 3.79 | 4.77 | below the threshold | below the threshold | below the threshold | 5.45 | below the threshold | below the threshold | 3.56 | 3.71 | below the threshold | below the threshold | below the threshold | below the threshold | below the threshold | below the threshold | 4 | below the threshold | GNSVLKSTQF [SLC22A12, Q96S37] | pKd [21]: below the threshold; pKd [22]: 4.07; pKd [23]: below the threshold; pKd [24]: below the threshold

Continued, binder first:

Binder | pKd [1] | pKd [2] | pKd [3] | pKd [4] | pKd [5] | pKd [6] | pKd [7] | pKd [8] | pKd [9] | pKd [10] | pKd [11] | pKd [12] | pKd [13] | pKd [14] | pKd [15] | pKd [16] | pKd [17] | pKd [18] | pKd [19] | pKd [20] | also measured
YYKRPVQEWV [MMP24, Q9Y5R2] | 4.2 | below the threshold | 4.09 | below the threshold | 3.48 | 4.32 | below the threshold | below the threshold | 6.12 | 3.94 | 3.63 | below the threshold | 3.91 | below the threshold | below the threshold | below the threshold | 4.38 | below the threshold | below the threshold | 3.48 | pKd [21]: 3.85; pKd [22]: 3.88; pKd [23]: below the threshold; pKd [24]: 4.37
VRNLPESEEL [MYOZ3, Q8TDC0] | 3.71 | below the threshold | below the threshold | 4.74 | below the threshold | below the threshold | below the threshold | below the threshold | below the threshold | below the threshold | below the threshold | below the threshold | below the threshold | 3.89 | below the threshold | below the threshold | below the threshold | 5.23 | 3.74 | below the threshold | pKd [21]: below the threshold; pKd [22]: 3.74; pKd [23]: below the threshold; pKd [24]: 3.94
DTTVPESEDL [MYOZ2, Q9NPC6] | 3.65 | below the threshold | below the threshold | 4.7 | below the threshold | below the threshold | below the threshold | below the threshold | below the threshold | below the threshold | below the threshold | below the threshold | below the threshold | 3.66 | below the threshold | below the threshold | below the threshold | 5.1 | below the threshold | below the threshold | pKd [21]: below the threshold; pKd [22]: below the threshold; pKd [23]: below the threshold; pKd [24]: 3.8
SKSNFGSEPL [KIF17, Q9P2E2] | below the threshold | below the threshold | below the threshold | 3.93 | below the threshold | below the threshold | below the threshold | below the threshold | below the threshold | below the threshold | below the threshold | below the threshold | below the threshold | below the threshold | below the threshold | below the threshold | below the threshold | below the threshold | below the threshold | below the threshold | pKd [21]: below the threshold; pKd [22]: below the threshold; pKd [23]: below the threshold; pKd [24]: below the threshold
